{
  "source": "the Immune Epitope Database (IEDB)",
  "key": {"[1]": {"biological_target": "HLA-A*02:16", "test": "IEDB peptide-MHC binding, purified MHC/direct/fluorescence; filed as Kd, often an IC50 or EC50 that approximates it; ≥ and ≤ were set here for values at or beyond the usual limits of such assays", "conditions": "source organism: Zaire ebolavirus"}, "[2]": {"biological_target": "HLA-A*02:03", "test": "IEDB peptide-MHC binding, purified MHC/direct/fluorescence; filed as Kd, often an IC50 or EC50 that approximates it; ≥ and ≤ were set here for values at or beyond the usual limits of such assays", "conditions": "source organism: Zaire ebolavirus"}, "[3]": {"biological_target": "HLA-B*15:01", "test": "IEDB peptide-MHC binding, purified MHC/direct/fluorescence; filed as Kd, often an IC50 or EC50 that approximates it; ≥ and ≤ were set here for values at or beyond the usual limits of such assays", "conditions": "source organism: Sudan ebolavirus - Maleo (1979)"}, "[4]": {"biological_target": "HLA-A*03:01", "test": "IEDB peptide-MHC binding, purified MHC/direct/fluorescence; filed as Kd, often an IC50 or EC50 that approximates it; ≥ and ≤ were set here for values at or beyond the usual limits of such assays", "conditions": "source organism: Zaire ebolavirus"}, "[5]": {"biological_target": "HLA-A*02:11", "test": "IEDB peptide-MHC binding, purified MHC/direct/fluorescence; filed as Kd, often an IC50 or EC50 that approximates it; ≥ and ≤ were set here for values at or beyond the usual limits of such assays", "conditions": "source organism: Zaire ebolavirus"}, "[6]": {"biological_target": "HLA-A*02:12", "test": "IEDB peptide-MHC binding, purified MHC/direct/fluorescence; filed as Kd, often an IC50 or EC50 that approximates it; ≥ and ≤ were set here for values at or beyond the usual limits of such assays", "conditions": "source organism: Zaire ebolavirus"}, "[7]": {"biological_target": "HLA-A*02:19", "test": "IEDB peptide-MHC binding, purified MHC/direct/fluorescence; filed as Kd, often an IC50 or EC50 that approximates it; ≥ and ≤ were set here for values at or beyond the usual limits of such assays", "conditions": "source organism: Zaire ebolavirus"}, "[8]": {"biological_target": "HLA-A*68:02", "test": "IEDB peptide-MHC binding, purified MHC/direct/fluorescence; filed as Kd, often an IC50 or EC50 that approximates it; ≥ and ≤ were set here for values at or beyond the usual limits of such assays", "conditions": "source organism: Zaire ebolavirus"}, "[9]": {"biological_target": "HLA-B*57:01", "test": "IEDB peptide-MHC binding, purified MHC/competitive/fluorescence; filed as Kd, often an IC50 or EC50 that approximates it; ≥ and ≤ were set here for values at or beyond the usual limits of such assays", "conditions": "source organism: Zaire ebolavirus"}, "[10]": {"biological_target": "HLA-A*02:01", "test": "IEDB peptide-MHC binding, purified MHC/competitive/fluorescence; filed as Kd, often an IC50 or EC50 that approximates it; ≥ and ≤ were set here for values at or beyond the usual limits of such assays"}, "[11]": {"biological_target": "HLA-A*69:01", "test": "IEDB peptide-MHC binding, purified MHC/competitive/fluorescence; filed as Kd, often an IC50 or EC50 that approximates it; ≥ and ≤ were set here for values at or beyond the usual limits of such assays", "conditions": "source organism: Zaire ebolavirus"}, "[12]": {"biological_target": "HLA-A*26:01", "test": "IEDB peptide-MHC binding, purified MHC/competitive/fluorescence; filed as Kd, often an IC50 or EC50 that approximates it; ≥ and ≤ were set here for values at or beyond the usual limits of such assays", "conditions": "source organism: Zaire ebolavirus"}, "[13]": {"biological_target": "HLA-A*25:01", "test": "IEDB peptide-MHC binding, purified MHC/competitive/fluorescence; filed as Kd, often an IC50 or EC50 that approximates it; ≥ and ≤ were set here for values at or beyond the usual limits of such assays", "conditions": "source organism: Zaire ebolavirus"}, "[14]": {"biological_target": "HLA-B*35:01", "test": "IEDB peptide-MHC binding, purified MHC/competitive/fluorescence; filed as Kd, often an IC50 or EC50 that approximates it; ≥ and ≤ were set here for values at or beyond the usual limits of such assays", "conditions": "source organism: Zaire ebolavirus"}, "[15]": {"biological_target": "HLA-B*27:03", "test": "IEDB peptide-MHC binding, purified MHC/competitive/fluorescence; filed as Kd, often an IC50 or EC50 that approximates it; ≥ and ≤ were set here for values at or beyond the usual limits of such assays", "conditions": "source organism: Zaire ebolavirus"}, "[16]": {"biological_target": "HLA-B*51:01", "test": "IEDB peptide-MHC binding, purified MHC/competitive/fluorescence; filed as Kd, often an IC50 or EC50 that approximates it; ≥ and ≤ were set here for values at or beyond the usual limits of such assays", "conditions": "source organism: Zaire ebolavirus"}, "[17]": {"biological_target": "HLA-B*39:01", "test": "IEDB peptide-MHC binding, purified MHC/competitive/fluorescence; filed as Kd, often an IC50 or EC50 that approximates it; ≥ and ≤ were set here for values at or beyond the usual limits of such assays", "conditions": "source organism: Zaire ebolavirus"}, "[18]": {"biological_target": "HLA-C*14:02", "test": "IEDB peptide-MHC binding, purified MHC/direct/fluorescence; filed as Kd, often an IC50 or EC50 that approximates it; ≥ and ≤ were set here for values at or beyond the usual limits of such assays", "conditions": "source organism: Yersinia pseudotuberculosis IP 31758"}, "[19]": {"biological_target": "HLA-C*15:02", "test": "IEDB peptide-MHC binding, purified MHC/direct/fluorescence; filed as Kd, often an IC50 or EC50 that approximates it; ≥ and ≤ were set here for values at or beyond the usual limits of such assays", "conditions": "source organism: Yersinia pseudotuberculosis IP 31758"}, "[20]": {"biological_target": "HLA-B*83:01", "test": "IEDB peptide-MHC binding, purified MHC/competitive/fluorescence; filed as Kd, often an IC50 or EC50 that approximates it; ≥ and ≤ were set here for values at or beyond the usual limits of such assays", "conditions": "source organism: Yersinia pseudotuberculosis IP 31758"}, "[21]": {"biological_target": "HLA-B*45:06", "test": "IEDB peptide-MHC binding, purified MHC/competitive/fluorescence; filed as Kd, often an IC50 or EC50 that approximates it; ≥ and ≤ were set here for values at or beyond the usual limits of such assays", "conditions": "source organism: Yersinia pseudotuberculosis IP 31758"}, "[22]": {"biological_target": "HLA-B*40:13", "test": "IEDB peptide-MHC binding, purified MHC/competitive/fluorescence; filed as Kd, often an IC50 or EC50 that approximates it; ≥ and ≤ were set here for values at or beyond the usual limits of such assays", "conditions": "source organism: Yersinia pseudotuberculosis IP 31758"}, "[23]": {"biological_target": "HLA-C*06:02", "test": "IEDB peptide-MHC binding, purified MHC/competitive/fluorescence; filed as Kd, often an IC50 or EC50 that approximates it; ≥ and ≤ were set here for values at or beyond the usual limits of such assays", "conditions": "source organism: Yersinia pseudotuberculosis IP 31758"}, "[24]": {"biological_target": "HLA-A*32:07", "test": "IEDB peptide-MHC binding, purified MHC/competitive/fluorescence; filed as Kd, often an IC50 or EC50 that approximates it; ≥ and ≤ were set here for values at or beyond the usual limits of such assays", "conditions": "source organism: Yersinia pseudotuberculosis IP 31758"}, "[25]": {"biological_target": "HLA-B*15:42", "test": "IEDB peptide-MHC binding, purified MHC/competitive/fluorescence; filed as Kd, often an IC50 or EC50 that approximates it; ≥ and ≤ were set here for values at or beyond the usual limits of such assays", "conditions": "source organism: Yersinia pseudotuberculosis IP 31758"}, "[26]": {"biological_target": "HLA-B*27:20", "test": "IEDB peptide-MHC binding, purified MHC/competitive/fluorescence; filed as Kd, often an IC50 or EC50 that approximates it; ≥ and ≤ were set here for values at or beyond the usual limits of such assays", "conditions": "source organism: Yersinia pseudotuberculosis IP 31758"}, "[27]": {"biological_target": "HLA-C*07:02", "test": "IEDB peptide-MHC binding, purified MHC/direct/fluorescence; filed as Kd, often an IC50 or EC50 that approximates it; ≥ and ≤ were set here for values at or beyond the usual limits of such assays", "conditions": "source organism: Homo sapiens"}, "[28]": {"biological_target": "HLA-B*40:02", "test": "IEDB peptide-MHC binding, purified MHC/competitive/fluorescence; ≥ and ≤ were set here for values at or beyond the usual limits of such assays", "conditions": "source organism: Homo sapiens"}, "[29]": {"biological_target": "HLA-A*24:02", "test": "IEDB peptide-MHC binding, purified MHC/competitive/fluorescence; ≥ and ≤ were set here for values at or beyond the usual limits of such assays", "conditions": "source organism: Homo sapiens"}},
  "data": [
    {"sequence": "NFFHASLAY", "values": [
      {"measurement": "Kd", "setting": "[1]", "result": "≥ 20000", "unit": "nM"},
      {"measurement": "Kd", "setting": "[2]", "result": "≥ 20000", "unit": "nM"},
      {"measurement": "Kd", "setting": "[3]", "result": 64.1, "unit": "nM"},
      {"measurement": "Kd", "setting": "[4]", "result": "≥ 20000", "unit": "nM"},
      {"measurement": "Kd", "setting": "[5]", "result": "≥ 20000", "unit": "nM"},
      {"measurement": "Kd", "setting": "[6]", "result": "≥ 20000", "unit": "nM"},
      {"measurement": "Kd", "setting": "[7]", "result": "≥ 20000", "unit": "nM"},
      {"measurement": "Kd", "setting": "[8]", "result": "≥ 20000", "unit": "nM"},
      {"measurement": "Kd", "setting": "[9]", "result": "≥ 20000", "unit": "nM"},
      {"measurement": "Kd", "setting": "[10]; source organism: Zaire ebolavirus", "result": "≥ 20000", "unit": "nM"},
      {"measurement": "Kd", "setting": "[11]", "result": "≥ 20000", "unit": "nM"},
      {"measurement": "Kd", "setting": "[12]", "result": "≥ 20000", "unit": "nM"},
      {"measurement": "Kd", "setting": "[13]", "result": "≥ 20000", "unit": "nM"},
      {"measurement": "Kd", "setting": "[14]", "result": 6, "unit": "nM"},
      {"measurement": "Kd", "setting": "[15]", "result": "≥ 20000", "unit": "nM"},
      {"measurement": "Kd", "setting": "[16]", "result": "≥ 20000", "unit": "nM"},
      {"measurement": "Kd", "setting": "[17]", "result": "≥ 20000", "unit": "nM"}
    ]},
    {"sequence": "FQWWRSHPL", "values": [
      {"measurement": "Kd", "setting": "[18]", "result": 232, "unit": "nM"},
      {"measurement": "Kd", "setting": "[19]", "result": 1400, "unit": "nM"},
      {"measurement": "Kd", "setting": "[20]", "result": 475, "unit": "nM"},
      {"measurement": "Kd", "setting": "[10]; source organism: Yersinia pseudotuberculosis IP 31758", "result": "≤ 0.1", "unit": "nM"},
      {"measurement": "Kd", "setting": "[21]", "result": "≥ 5000", "unit": "nM"},
      {"measurement": "Kd", "setting": "[22]", "result": 1.3, "unit": "nM"},
      {"measurement": "Kd", "setting": "[23]", "result": 837, "unit": "nM"},
      {"measurement": "Kd", "setting": "[24]", "result": 73.6, "unit": "nM"},
      {"measurement": "Kd", "setting": "[25]", "result": "≥ 5000", "unit": "nM"},
      {"measurement": "Kd", "setting": "[26]", "result": "≤ 0.1", "unit": "nM"}
    ]},
    {"sequence": "FYYNAFHWAI", "values": [
      {"measurement": "Kd", "setting": "[27]", "result": 182, "unit": "nM"},
      {"measurement": "IC50", "setting": "[28]", "result": "≥ 20000", "unit": "nM"},
      {"measurement": "IC50", "setting": "[29]", "result": 305, "unit": "nM"}
    ]}
  ]
}
